First the molecules themselves.
B1: glmS ribozyme (parent)
chain: AUAAAAGCGCCAGAACUACAGAAAUGUAGUUGACGAGGAGGAGGUUUAUCGAAUUUUCGGCGGAUGCCUCCAAA

Conditions in all cases: with glucosamine-6-phosphate
Data set [1] covers variants of B1. Put plainly: kcat; higher = faster cleavage; RNA array. The procedure, abridged:
(§1)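 Over ~14 h at 37 °C, tiles were imaged as glucosamine-6-phosphate (40 μM to 10 mM) in HEPES/KCl/Mg(OAc)2 buffer flowed across sequenced MiSeq chips. The chips carried barcoded ribozyme variants transcribed in situ by E. coli RNA polymerase and tracked with a hybridised Cy3 probe. After normalisation to baseline and to non-cleaving reference variants, one- or two-exponential decay fits of per-tile medians gave kobs. kcat and KM followed from weighted Michaelis–Menten fits across concentrations.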

In data set [2] the parent is B1. Briefly: KM; higher = weaker cofactor use; RNA array. The method in brief: as §1
In data set [3] the parent is B1. Briefly: self-cleavage kobs at 40 uM GlcN6P; higher = faster cleavage; RNA array. The method in brief: as §1
The variants in data set [4] derive from B1. Put plainly: self-cleavage kobs at 160 uM GlcN6P; higher = faster cleavage; RNA array. The method in brief: as §1
Data set [5] covers variants of B1. Briefly: self-cleavage kobs at 640 uM GlcN6P; higher = faster cleavage; RNA array. The method in brief: as §1
In data set [6] the parent is B1. Put plainly: self-cleavage kobs at 2500 uM GlcN6P; higher = faster cleavage; RNA array. The procedure, abridged:
as §1

Variants of B1 are the subject of data set [7]. Briefly: self-cleavage kobs at 10000 uM GlcN6P; higher = faster cleavage; RNA array. The method in brief: as §1

A word on the kcat: it is the number of substrate molecules converted per active site and unit of time at saturation. One may read the KM as the substrate concentration at which the rate is half of its maximum.

± gives the standard error. For some of these results: Fewer inactive variants are shown than the library holds.

With C61A, in the data set with glucosamine-6-phosphate [1], the kcat was less than 1e-05 s⁻¹.

In the case of C11G C70U, the kcat with glucosamine-6-phosphate [1] came out at 1.5e-05 ± 6.7e-07 s⁻¹. In addition, the KM in the data set with glucosamine-6-phosphate [2] was determined as 138 ± 61 µM.

Turning to G37U C68G, the kcat with glucosamine-6-phosphate [1] amounted to 2.11e-05 ± 5e-06 s⁻¹.

For A15U U31C, the kcat in the data set with glucosamine-6-phosphate [1] turned out to be 0.00128 ± 0.0001 s⁻¹. Further, the KM with glucosamine-6-phosphate [2] is 2710 ± 340 µM. Besides, in the data set with glucosamine-6-phosphate [3], the “self-cleavage kobs at 40 uM GlcN6P” value is 1.67e-05 ± 5.8e-06 s⁻¹. Besides, the “self-cleavage kobs at 160 uM GlcN6P” value with glucosamine-6-phosphate [4] came to 7.32e-05 ± 7.2e-06 s⁻¹. In addition, the “self-cleavage kobs at 640 uM GlcN6P” value with glucosamine-6-phosphate [5] is 0.000233 ± 1.9e-05 s⁻¹. Besides, in the data set with glucosamine-6-phosphate [6], the “self-cleavage kobs at 2500 uM GlcN6P” value came out at 0.000703 ± 6.9e-05 s⁻¹. In the data set with glucosamine-6-phosphate [7], the “self-cleavage kobs at 10000 uM GlcN6P” value stood at 0.000981 ± 7.1e-05 s⁻¹.

As to C16U C61G, the kcat with glucosamine-6-phosphate [1] was less than 1e-05 s⁻¹.

For the variant C16G G59A, the kcat in the data set with glucosamine-6-phosphate [1] was determined as 1.51e-05 ± 3.3e-06 s⁻¹.

In the case of G62A C70A, in the data set with glucosamine-6-phosphate [1], the kcat was 4.15e-05 ± 2e-05 s⁻¹. In the data set with glucosamine-6-phosphate [3], the “self-cleavage kobs at 40 uM GlcN6P” value is less than 1e-05 s⁻¹. Also, the “self-cleavage kobs at 640 uM GlcN6P” value in the data set with glucosamine-6-phosphate [5] came out at 7.27e-05 ± 2.4e-05 s⁻¹.

For the variant A15C C70A C71A, in the data set with glucosamine-6-phosphate [1], the kcat was found to be 3.7e-05 ± 3.6e-06 s⁻¹. Also, the KM with glucosamine-6-phosphate [2] worked out at 98.6 ± 41 µM.

U31C G44U C67G: in the data set with glucosamine-6-phosphate [1], the kcat turned out to be 0.00162 ± 0.00031 s⁻¹. Further, the KM with glucosamine-6-phosphate [2] was found to be 2430 ± 830 µM. In addition, the “self-cleavage kobs at 640 uM GlcN6P” value with glucosamine-6-phosphate [5] was found to be 0.00032 ± 7.1e-05 s⁻¹. For the same variant, the “self-cleavage kobs at 2500 uM GlcN6P” value with glucosamine-6-phosphate [6] stood at 0.0011 ± 0.00027 s⁻¹. For the same variant, in the data set with glucosamine-6-phosphate [7], the “self-cleavage kobs at 10000 uM GlcN6P” value was determined as 0.00124 ± 0.00024 s⁻¹.

On to G32U A39U, for which, in the data set with glucosamine-6-phosphate [1], the kcat is 0.000723 ± 0.00022 s⁻¹. In the data set with glucosamine-6-phosphate [2], the KM was 8400 ± 3500 µM. In addition, the “self-cleavage kobs at 160 uM GlcN6P” value in the data set with glucosamine-6-phosphate [4] worked out at 3.38e-05 ± 1e-05 s⁻¹. The “self-cleavage kobs at 640 uM GlcN6P” value with glucosamine-6-phosphate [5] was 5.81e-05 ± 5.6e-06 s⁻¹. Further, the “self-cleavage kobs at 2500 uM GlcN6P” value with glucosamine-6-phosphate [6] was determined as 0.000148 ± 1.2e-05 s⁻¹. For the same variant, the “self-cleavage kobs at 10000 uM GlcN6P” value in the data set with glucosamine-6-phosphate [7] is 0.000411 ± 3.1e-05 s⁻¹.

In the case of U55C C67G, the kcat with glucosamine-6-phosphate [1] was less than 1e-05 s⁻¹. Besides, the “self-cleavage kobs at 40 uM GlcN6P” value with glucosamine-6-phosphate [3] was less than 1e-05 s⁻¹.

On to A52C C68U, for which the kcat with glucosamine-6-phosphate [1] was 1.28e-05 ± 5.9e-07 s⁻¹. Also, the KM with glucosamine-6-phosphate [2] was 249 ± 86 µM. Moreover, the “self-cleavage kobs at 40 uM GlcN6P” value with glucosamine-6-phosphate [3] was less than 1e-05 s⁻¹.

Take U47C C70U: the kcat with glucosamine-6-phosphate [1] was determined as 0.00786 ± 0.0023 s⁻¹. For the same variant, the KM with glucosamine-6-phosphate [2] came to 2070 ± 790 µM. Besides, the “self-cleavage kobs at 40 uM GlcN6P” value with glucosamine-6-phosphate [3] was 0.000179 ± 2.6e-05 s⁻¹. The “self-cleavage kobs at 160 uM GlcN6P” value with glucosamine-6-phosphate [4] came out at 0.000483 ± 0.00014 s⁻¹. For the same variant, in the data set with glucosamine-6-phosphate [5], the “self-cleavage kobs at 640 uM GlcN6P” value stood at 0.00151 ± 0.00028 s⁻¹. The “self-cleavage kobs at 2500 uM GlcN6P” value in the data set with glucosamine-6-phosphate [6] was found to be 0.00519 ± 0.00095 s⁻¹. Besides, in the data set with glucosamine-6-phosphate [7], the “self-cleavage kobs at 10000 uM GlcN6P” value amounted to 0.00635 ± 0.0016 s⁻¹.

Take A33U U55C: in the data set with glucosamine-6-phosphate [1], the kcat turned out to be 0.000106 ± 1.2e-05 s⁻¹. Also, in the data set with glucosamine-6-phosphate [2], the KM turned out to be 6170 ± 1300 µM. The “self-cleavage kobs at 40 uM GlcN6P” value in the data set with glucosamine-6-phosphate [3] is less than 1e-05 s⁻¹. In addition, the “self-cleavage kobs at 2500 uM GlcN6P” value in the data set with glucosamine-6-phosphate [6] turned out to be 3.12e-05 ± 5.7e-06 s⁻¹. The “self-cleavage kobs at 10000 uM GlcN6P” value with glucosamine-6-phosphate [7] amounted to 6.51e-05 ± 7.8e-06 s⁻¹.

Regarding A33U U55G, in the data set with glucosamine-6-phosphate [1], the kcat was found to be 0.000103 ± 1e-05 s⁻¹. For the same variant, in the data set with glucosamine-6-phosphate [2], the KM was determined as 1990 ± 570 µM. Moreover, in the data set with glucosamine-6-phosphate [5], the “self-cleavage kobs at 640 uM GlcN6P” value is 3.4e-05 ± 1.3e-05 s⁻¹. The “self-cleavage kobs at 2500 uM GlcN6P” value in the data set with glucosamine-6-phosphate [6] was determined as 5.38e-05 ± 7.7e-06 s⁻¹. Further, the “self-cleavage kobs at 10000 uM GlcN6P” value in the data set with glucosamine-6-phosphate [7] stood at 8.77e-05 ± 1e-05 s⁻¹.

C8A A48G: in the data set with glucosamine-6-phosphate [1], the kcat was less than 1e-05 s⁻¹. Further, the “self-cleavage kobs at 160 uM GlcN6P” value with glucosamine-6-phosphate [4] is less than 1e-05 s⁻¹. Also, in the data set with glucosamine-6-phosphate [6], the “self-cleavage kobs at 2500 uM GlcN6P” value was less than 1e-05 s⁻¹. The “self-cleavage kobs at 10000 uM GlcN6P” value with glucosamine-6-phosphate [7] was less than 1e-05 s⁻¹.

For U31C U65G, the kcat in the data set with glucosamine-6-phosphate [1] amounted to 0.0016 ± 0.00034 s⁻¹. Also, the Michaelis constant (KM) in the data set with glucosamine-6-phosphate [2] came out at 5250 ± 1700 µM. In addition, the “self-cleavage kobs at 640 uM GlcN6P” value with glucosamine-6-phosphate [5] was 0.000198 ± 2.5e-05 s⁻¹. In the data set with glucosamine-6-phosphate [6], the “self-cleavage kobs at 2500 uM GlcN6P” value was 0.000465 ± 7.2e-05 s⁻¹. Moreover, in the data set with glucosamine-6-phosphate [7], the “self-cleavage kobs at 10000 uM GlcN6P” value amounted to 0.00108 ± 0.00013 s⁻¹.

Take A52U U55A: the kcat with glucosamine-6-phosphate [1] turned out to be 0.000247 ± 3.7e-05 s⁻¹. Also, the KM with glucosamine-6-phosphate [2] came out at 2490 ± 990 µM. Also, in the data set with glucosamine-6-phosphate [5], the “self-cleavage kobs at 640 uM GlcN6P” value worked out at 3.67e-05 ± 1.3e-05 s⁻¹. For the same variant, the “self-cleavage kobs at 2500 uM GlcN6P” value with glucosamine-6-phosphate [6] was determined as 0.000147 ± 1.8e-05 s⁻¹. For the same variant, the “self-cleavage kobs at 10000 uM GlcN6P” value with glucosamine-6-phosphate [7] worked out at 0.000191 ± 1.8e-05 s⁻¹.

For the variant G32C C70U, the kcat with glucosamine-6-phosphate [1] was found to be 0.000154 ± 1.4e-05 s⁻¹. The KM with glucosamine-6-phosphate [2] stood at 2850 ± 800 µM. The “self-cleavage kobs at 640 uM GlcN6P” value with glucosamine-6-phosphate [5] amounted to 3.89e-05 ± 1.1e-05 s⁻¹. The “self-cleavage kobs at 2500 uM GlcN6P” value with glucosamine-6-phosphate [6] stood at 6.52e-05 ± 1e-05 s⁻¹. The “self-cleavage kobs at 10000 uM GlcN6P” value with glucosamine-6-phosphate [7] came out at 0.000121 ± 7.5e-06 s⁻¹.
